assay: soluble on expression in E. coli; label from the status in PepcDB or PDB records

| Sequence | soluble on expression in E. coli |
| --- | --- |
| MRKIRLVYRRFPNRVIMREDEVIEDFGDVIVAKSEFTGMLAPLRVNGVEVINNGYKMVYFAFIGRDFDVLKIYDPSGNFKGLYVDVLDYTRREGNTVEILDLFLDIFIFPEGEYYLLDEDELEMAFNYGIISREKLLKAYDTAERIIGQIKRGKFPPKIVWEYSL | not soluble |
| MGSDKIHHHHHHMSNYRNPHQLIITADDYGMCPEVNRAIEECLAAGALRATCVMTNMPAYTDADRLSKDFPSASIGIHWTLTAGTPVAPLSEVPDLVAPNGQFWPAAEFRQRWLSRRISPTQVVIELQAQHARFVELIGQPAFWNTHQNVHVLPRLFPLVVDLAHRLGIPAMRSHRRITAPRHSSTLRYYLTHPIYWLKGQIIARWAAAAEKRGLRMPAGVVSTPGFGPGKVAIDQIIARIPWPRRLPAELVIHPATRVIPGLFGGLTESRLREFEVFRDPTLVERLAAMGVQPVGFEVL | not soluble |
| MSLNPLKCAVIGVGYLGKFHAEKYAALPGCELVAVVDADPVTAAEIGDRLGVRGLTDHRALLGKVDAVSVVVPTSLHHRVARDFLEAGAHVLVEKPITVTVEEADELIRIAKEKQRVLMVGHLERFNAAVLGLDLDHHKPLFIESHRLAPFKPRANDVSVVLDLMIHDIDIILDMVDSEVERIDAKGVAVLTGDIDIANARLQFKSGCVANVTASRVSLKVERKMRMFMPNAYVSVDFQNRVLARHRKGEGEMFPGVPEILSEESVFENGDALMEEIRHFLDCIREHREPLVSGAAGRRALATAIEITNLLKVQESRSEGHHHHHH | soluble |
| MCMGTRSKRSERGRCRMHLERCVCPAIPRYDLTTRVVLVMHHREYPKPTATGPLALAALPNSELRIHGERDSLLDLGDLATPERRTLLLYPGDDVPVLTRELLERDRRPVTLVVPDGTWRQASRMGRRLPGLDHAEMVRLPEGLPTEWGIRRENHPQGLATFEAIARALGIIESPAVQTGLEELFRLMVRRTLSAGGRAILEHHHHHH | soluble |
| PKQVGNAQHLYDNYDLVPAMIAEVNPRDMVVMALVNTNVDPTLPPRWALATRNITAIPGIEGDTRKVGTRIPAVAVTGQRSVGNQDSWDQISPMPIAWATPDSSVIARAESTIPSEQWTTLSKNLNKLDQVRETKFDLLEL | soluble |
| MKQLSSFDIKACVRELKELEGGKVEKVYHHPPDEIRIRIYAGRKVDLVIEAGRRIHLTKFPKQAPRFPSAFAMLLRKHLEGARIKKIEQYDFDRVVVIEFERFGEIRRIVAELFSKGNVVLLNEENRVIMPLKHTIKVGELYRFPEQRERKDEDREVVRVLAMSGLGGLYAEEVCLRAGIDKKKKYAELSEDERKKIDEEIERLMNFTPKPQIILKDGDYLDVVPMDLLYYSNYEKKYFESFNDALDDYFSKKLAEMDELESMKSEELEKLKKRLEIQKESLRKFEDEAESFRKIGDAIYENYQMVEKIIEAFRAARERKSWDEIKEIVARDEKLKKLVKAIKPEKNAIVVKVGDFDVELEIKKSIHENADLYYEKAKKAREKAEGVKRAIEATLREMERVEEKLEKKLVTSIKVRRKKEWYE | not soluble |
| RVLQELHESEAQNRALLNAIPDMMLHVCREGTILDFRAGNGCAYAAFGGNLRGRTIADLLPPGAAAQFMAQVGHALATGTMMVCEYELEGPGGLNTHEARIVANGTGTVLAIVRDVT | not soluble |
| MSLDFRSADFLRTHISDTMAFYHPRCIDSAGGFFHYFRDDGSIYNATHRHLVSSTRFVFNYAMAYLQFGTAEYLDAVHHGLSYVRDVHRNPATGGYAWTLCDDRVEDDTNHCYGLAFVMLAYSCGLKVGIKQAREWMDETWCLLERHFWDAEYGLYKDEADAQWNFTRYRGQNANMHMCEAMLAAYEASGEQRYLERALVLADRITRRQAAKADGLVWEHYDMRWEVDWDYNRDNPKHLFRPWGFQPGHQTEWAKLLLILDRYIEVEWLVPVARSLFDVAVARSWDAVRGGLCYGFAPDGTICDDDKYFWVQAESLAAAALLATRSGDERYWQWYDRLWAYAWQHMVDHRYGAWYRLLDGDNRKYNDEKSPAGKTDYHTMGACHEVLNVVWTKSEGHHHHHH | soluble |
| MGLWFEEGAEERQVLGPFREFLKAEVAPGAAERDRTGAFPWDLVRKLAEFGVFGALVPEAYGGAGLSTRLFARMVEAIAYYDGALALTVASHNSLATGHILLAGSEAQKEAFLPKLASGEALGAWGLTEPGSGSDAAALKTKAEKVEGGWRLNGTKQFITQGSVAGVYVVMARTDPPPSPERKHQGISAFAFFRPERGLKVGRKEEKLGLTASDTAQLILEDLFVPEEALLGERGKGFYDVLRVLDGGRIGIAAMAVGLGQAALDYALAYAKGREAFGRPIAEFEGVSFKLAEAATELEAARLLYLKAAELKDAGRPFTLEAAQAKLFASEAAVKACDEAIQILGGYGYVKDYPVERYWRDARLTRIGEGTSEILKLVIARRLLEAV | soluble |
| MTIIKLERRDVRLLLLYEFRLGHSAMEAERNICGAMGEGALSYNTAKSWFQKFKNGDFSLEEIERSGRPVELNEEDLVKLVEEEPRLSLREMEEKLECCHSTIARHLGRLGFTSKLGIWVPHELSASQKLTRVNVCTQLLTFRRKFDWLNNLVTGDEKWVLYVNHSRKRQWLPIGEKGIPTPKPDLHPKKIMICVWWGVQGPVHWELLPTNKTITADYYCAQLDRVAEKTNGKYEKLYFLHDNARPHVAKKTFQKLQDLGWTVLPHPPYSPDLAPTDYHLFLSLSDYMRDKQFDDEEHLKTELSTFFSSRSPDFFSRGIMMLPSKWQQVVDTNGEYLCE | not soluble |
| QTSGFSVTSGPMDVDVVTSIPFAMVDEINESSPAAEGGLQLGDQVLKFGNVEGGDNLLQRLAAEAQSNQGQAVSVQVMRQ | soluble |
| MSWSLLSNIIKKFTLLHHFQPIGYIYKYIHICTLNHSLGSCVLQANYSIQNNLRSRTLFIQSEITYSHSLESTHFFGILIFFNIKFRVFNRINDPWTVLDNVPEVMFHDRFFINDFTFWVDVLQEAFRMRRWIFRFEQLVVNPSFSNSQWRIIF | soluble |
| MGSDKIHHHHHHMYANASSENGAVNVSDDGPPLRIIHCFRSPVGGVFRHVRDLIEEHVRQGHKVGIVCDSSTGGAHEERLFAQITPMLELGLTRLPIRRSISPGDLLALWKSYKHIKSLRPDILHGHSAKGGALARLIGSLLRANRYRVARLYSPHGGSLHYARNSLKGQLFLRLERFQEHFTDALCFVCNFEQETYETKVGKPRTRTAMIYNGVQESEFETVPPRDGAARFLYIGMLRDLKGPDVFIRAFAKMERSIGQPMSGVIVGDGPDRDKYAAMIATAGLSRRISMHAAMPARQAFELATTVVVPSRAEAMPYIVLEALAAGKTVIASHVGGIPEVLGEDSEALVPAGDADALARTMVKDAADADWAQRVMPHPDSFKAKFSTPVMADEMMKLYRDLLTT | not soluble |
| MTNLPMNKLIDEVNNELSVAINKSVMDTQLEESMLYSLNAGGKRIRPVLLLLTLDSLNTEYELGMKSAIALEMIHTYSLIHDDLPAMDNDDYRRGKLTNHKVYGEWTAILAGDALLTKAFELISSDDRLTDEVKIKVLQRLSIASGHVGMVGGQMLDMQSEGQPIDLETLEMIHKTKTGALLTFAVMSAADIANVDDTTKEHLESYSYHLGMMFQIKDDLLDCYGDEAKLGKKVGSDLENNKSTYVSLLGKDGAEDKLTYHRDAAVDELTQIDEQFNTKHLLEIVDLFYSRDHKGHHHHHH | soluble |
| MSSAGEANCAMIGGSLSAARQLDGSVIGMCALPNGKRCSEQSLAAGSCGSY | not soluble |
| MMLRSHPNTLHITKLSHSAIHQLAPSFAQLPHTNHADGQYRLRRYSVIRFIDGQVVELDKHDFMQTDQINHFQGNVVRRFEPLLSTTLKSDGMRELCALFMEANTLPDGQEIEIHQMRIAAVFDETLVAPEGVHQDGFDHIAIVGIDRYNIVGGEIMLYLSSHEAPFFRKVLENGEVAMLADSQLWHNACPIRTVDHQQEGHMDVFVLTAKDGRHALHS | not soluble |
| GPGSMQLQSRAPEHFSTPFFSSPSSSVAYESGCSLDALERLVHFTGAGADACLYAVHPPQAKGTDSAALTPTTEGLRYWLNPSVRARPTTATCEITNLGPPFFASTSTAVLRISATPLFVDGRCFPTRCVVSLATSAQRLDGVSLRPVVVTEWNLTASGAAGVCTTTVPLRTLYHLAVLISSSAPATGVEEVRLYLHLRFMGCSDGSDTHRIAAVRLRYEQLGTAAEVLPQLLQRRQRAAAHVMLPSPYDVKYHSEGRFTRAGAPLEEVEVGVIAGSSTATSSGRKDMGDDAGKSLFVGAKERRTHTSPPSSTRMRSDGCETRGDRRRGRAPRGC | soluble |
| MKLSPVSAAVLSVLAAGFAHAETEPSHYEEVVVTANRIEQPLSEVAGSVAVLEGETLEKQGKTELYDALNQEPGVSVTGGAGRPQNITIRGMTGNRIAIVRDGIQSADGYGAADINDKYGRNTFSLSNVKQIQVVKGASSTLYGSGAIGGVVIIESKAPEDYLYHRDYYVDAALTYSGISNRYQGNHALAMRHGDGEALLTIDYWQGEETRNFNQDLYNREVDGYNLGFSHHYWLNDALRLKTHLEYFDDYAKRREGTSSIQKDDKWDLVSFYEYQRSQTRLASVGADYTANLSWMDTLEGKFYWRSTENITQTNRLMANDRSGAGILSYRRELRDEGFNDEALGATLNAQKEWQQGEWLHQFAYGMSVDGHDYQRPKSIRRMESSGDDLQADEPFAPAREYRFGVYGQDNLLLGDWTLAAGLRFDAQKLSPKNTDRIHGYKVVTMGSSEWSPSASISYQWHPEWNTYLSYNHGFRAPSYDKAYGASDHSFVPLTPFIIKPNNKLRAETSDSFELGSKYDNGQTQFYVAVFYSIFDNFIDVKQVGYDNATGSVIQQYQNIAGVKTYGAEMSVMHRLDDRWSVENKLGYVDGKDGENQYVRTLTPLEGSVQLNYQRERWDAYSRLNWASAMSRVPTCTTEQGKETECATTTGWVSWDIGLNYQWNAQLSASFNVVNLLDREYTRYQDVAGVTPSDTLYSTEPGRYFTVHAKYVF | not soluble |
| MAQNESPAEQLFAAIGLLRRHTRRRVGRPWPETPLTGSQVELVRLLRRRPGTSVAEAAAALGLAANTVSTLVRQLTDAGLVERVRDESDRRVARLALTDDARAQVERWRDRRNIEVAAAFDGLSAEDRKAIESAIPAITRLAGALHPDQAGPSDQEVVR | not soluble |
| MHPMNILLKLPLKIPLMIIEKAREILEKHPLCNHCLGRMFAKLGKGTNEERGKAIRLILSMELNREVKEPENCELCQGIFRRMNELLDLVRNAVEDYEFQTFQIGSRFPKDILEKEKKIWEEFGITTGEPINREFNRELGKLFAKVTGKIPNRERPDIVIIVEPFSSKVELQVNPIYVAGRYRKLVRGIPQTPAPGFEESIATIICRVFKKNFRGKCIFKGAGREDVDVRTLGRGRPFVVEIKKPRKRKVDLKLIEEEINSSGKVEVLELKFITPEESEKILTARHKKIYEALVYVKDGVSAEEVEKVVKSLKGSEIKQRTPRRVLNSRADIVRVRRVYNVSGEYIDEHHFKLKLVTDGGLYIKELISGDKGRTKPSVSEILGKEAWCEILDVLDVLDGDENVEGDS | soluble |
| MLYDVVGVRFKKAGKVYYFDPNQFDISENEFVIVETVRGIEYGKVVITKKQVDENDVVLPLKKVIRIANENDRTIVEENKHAAKEAYQVCQQKVVEHNLDMKLVDVEYTFDRNKIIFYFTADGRIDFRELVKDLAAIFRTRIELRQIGVRDEAKMLGGIGPCGRMLCCSTFLGDFEPVSIKMAKDQNLSLNPAKISGLCGRLMCCLKYENDEYEAAKEQLPDLDQRIQTPHGTGRVIGLNILERLIQVELVDKERIVEYTLDELVNKGLEHHHHHH | soluble |
| GMIRLLYLLVKPAGMSDETFRAECLRHYEMSHDVPGLHKYEVRLVAEQPTDTHVPFFDIGHVDAIGECWFKDDAAYATYMASDIRKAWFEHGKTFIGQLKPFRTAPVAGDEPAS | soluble |

From the DeepSol protein solubility set
